The assay deals with T1, XPO1 (human, UniProt O14980 1-1071).
T1 construct: Endogenous protein pulled down from iPSN nuclear lysates with mouse anti-XPO1 (Santa Cruz sc-74454) coupled to Protein G beads; also called CRM1; XPO1/CRM1
Briefly: co-immunoprecipitation with anti-XPO1 from iPSN nuclear lysates, western blot. The procedure:
Nuclei were isolated from iPSNs as described above. The resulting nuclei pellet was lysed in 1 mL IP buffer by vortexing for 30-45 seconds. Nuclei lysates were centrifuged for 10 minutes at 2500 rpm and 4° C. to remove debris. Following centrifugation, the supernatant was transferred to a clean Eppendorf tube. 25 μL of the supernatant was added to μL 2× Laemmli buffer (BioRad) and set aside as protein input and an additional 25 μL supernatant was set aside on ice as RNA input. The remainder of the lysate was split equally between IgG and XPO1 antibody conjugated bead tubes. Lysates were incubated with beads with end over end rotation for 2 hours at 4° C. The unbound supernatant was discarded and immunoprecipitated complexes were washed 3×5 minutes in 200 μL IP buffer with end over end rotation at 4° C. Bead-IP complexes were resuspended in 200 μL IP buffer. 100 μL of each bead-IP complex sample was set aside for RNA analysis. For the remaining 100 μL, the supernatant was discarded and 50 μL 1× Laemmli buffer was added to bead-IP complexes. All RNA samples (including input) were added to 500 μL RLT Buffer (QIAGEN) and RNA isolation, cDNA synthesis, and qRT-PCR were performed as described below. Protein samples were analyzed by western blot as described below. Equal volumes of each sample (10 μL) were loaded in acrylamide gels. […]
(In general: In western blotting, separated proteins are transferred to a membrane and probed.)

Two molecules from patent US20230407298A1 (Johns Hopkins, published 2023) can be followed below.

T1 sequence (O14980 whole entry): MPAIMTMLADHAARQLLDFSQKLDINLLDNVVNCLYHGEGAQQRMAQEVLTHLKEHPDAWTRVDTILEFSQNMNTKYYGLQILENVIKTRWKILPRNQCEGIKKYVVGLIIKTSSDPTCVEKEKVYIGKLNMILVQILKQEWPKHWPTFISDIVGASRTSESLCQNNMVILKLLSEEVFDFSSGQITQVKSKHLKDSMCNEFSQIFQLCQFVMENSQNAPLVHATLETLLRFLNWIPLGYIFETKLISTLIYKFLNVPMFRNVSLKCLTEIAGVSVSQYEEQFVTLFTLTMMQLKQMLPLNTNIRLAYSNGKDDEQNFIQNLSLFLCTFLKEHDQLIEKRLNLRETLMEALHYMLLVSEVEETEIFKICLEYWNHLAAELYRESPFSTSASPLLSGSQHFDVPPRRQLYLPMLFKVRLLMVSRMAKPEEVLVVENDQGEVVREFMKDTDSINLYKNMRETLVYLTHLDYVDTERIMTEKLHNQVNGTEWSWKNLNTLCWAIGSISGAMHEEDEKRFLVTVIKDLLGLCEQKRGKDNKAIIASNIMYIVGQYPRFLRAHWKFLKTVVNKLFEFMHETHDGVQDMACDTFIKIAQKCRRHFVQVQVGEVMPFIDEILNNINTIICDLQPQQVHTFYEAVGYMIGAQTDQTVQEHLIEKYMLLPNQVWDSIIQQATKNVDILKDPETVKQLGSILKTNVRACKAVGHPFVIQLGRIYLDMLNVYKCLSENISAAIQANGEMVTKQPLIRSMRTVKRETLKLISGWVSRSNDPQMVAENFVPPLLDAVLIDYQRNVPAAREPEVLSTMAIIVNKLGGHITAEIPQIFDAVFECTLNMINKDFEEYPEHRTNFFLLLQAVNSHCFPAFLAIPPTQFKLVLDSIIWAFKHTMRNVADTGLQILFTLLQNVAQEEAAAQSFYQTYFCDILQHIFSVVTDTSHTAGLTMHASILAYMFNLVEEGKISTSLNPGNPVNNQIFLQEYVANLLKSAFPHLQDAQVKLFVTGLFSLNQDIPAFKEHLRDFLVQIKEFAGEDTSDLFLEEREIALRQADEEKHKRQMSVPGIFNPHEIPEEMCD

B1: Lamin B1 (other, human, UniProt P20700 2-583, looked up)
chain: ATATPVPPRMGSRAGGPTTPLSPTRLSRLQEKEELRELNDRLAVYIDKVRSLETENSALQLQVTEREEVRGRELTGLKALYETELADARRALDDTARERAKLQIELGKCKAEHDQLLLNYAKKESDLNGAQIKLREYEAALNSKDAALATALGDKKSLEGDLEDLKDQIAQLEASLAAAKKQLADETLLKVDLENRCQSLTEDLEFRKSMYEEEINETRRKHETRLVEVDSGRQIEYEYKLAQALHEMREQHDAQVRLYKEELEQTYHAKLENARLSSEMNTSTVNSAREELMESRMRIESLSSQLSNLQKESRACLERIQELEDLLAKEKDNSRRMLTDKEREMAEIRDQMQQQLNDYEQLLDVKLALDMEISAYRKLLEGEEERLKLSPSPSSRVTVSRASSSRSVRTTRGKRKRVDVEESEASSSVSISHSASATGNVCIEEIDVDGKFIRLKNTSEQDQPMGGWEMIRKIGDTSVSYKYTSRYVLKAGQTVTIWAANAGVTASPPTDLIWKNQNSWGTGEDVKVILKNSQGEEVAQRSTVFKTTIPEEEEEEEEAAGVVVEEELFHQQGTPRASNRSC
notes: Absent from XPO1 immunoprecipitates by western blot
For B1, the binding result is recorded as “no binding”.

B2: LEMD2 (other, human, UniProt Q8NC56 2-503, looked up)
chain: AGLSDLELRRELQALGFQPGPITDTTRDVYRNKLRRLRGEARLRDEERLREEARPRGEERLREEARLREDAPLRARPAAASPRAEPWLSQPASGSAYATPGAYGDIRPSAASWVGSRGLAYPARPAQLRRRASVRGSSEEDEDARTPDRATQGPGLAARRWWAASPAPARLPSSLLGPDPRPGLRATRAGPAGAARARPEVGRRLERWLSRLLLWASLGLLLVFLGILWVKMGKPSAPQEAEDNMKLLPVDCERKTDEFCQAKQKAALLELLHELYNFLAIQAGNFECGNPENLKSKCIPVMEAQEYIANVTSSSSAKFEAALTWILSSNKDVGIWLKGEDQSELVTTVDKVVCLESAHPRMGVGCRLSRALLTAVTNVLIFFWCLAFLWGLLILLKYRWRKLEEEEQAMYEMVKKIIDVVQDHYVDWEQDMERYPYVGILHVRDSLIPPQSRRRMKRVWDRAVEFLASNESRIQTESHRVAGEDMLVWRWTKPSSFSDSER
notes: Absent from XPO1 immunoprecipitates by western blot; also called LEM2
With B2, the binding result is recorded as “no binding”.
